Reference: US20130089496A1

Columns and labels:
[1] = target: FcγRIIIa, F allele at position 158, on NK cells homozygous for F (human) (UniProt P08637); assay: cell-based or functional assay
[2] = target: FcγRIIIa, V allele at position 158, on NK cells homozygous for V (human) (UniProt P08637); assay: cell-based or functional assay

Inhibition of ADCC (cetuximab-mediated ADCC of A431 cells by NK cells) [1]	Inhibition of ADCC (trastuzumab-mediated ADCC of SKBR-3 cells by NK cells) [1]	Inhibition of ADCC (cetuximab-mediated ADCC of A431 cells by NK cells) [2]	Inhibition of ADCC (trastuzumab-mediated ADCC of SKBR-3 cells by NK cells) [2]	Substance
76.5%	94.5%	79.4%	97.4%	aggregated IgG1 expressing GM 3+,1-,2- allotypes (antibody)
50.3%	27.8%	83.3%	73.8%	aggregated IgG1 expressing GM 17+,1+,2+ allotypes (antibody)
